Results from patent US20020156245A1 (Genentech, published 2002).
Each block holds one binder with its values, some of them ahead of it.

Biological target: T1, human Ptch-2 (SEQ ID NO:2) (human, UniProt Q9Y6C5 1-1203)
T1 construct: Its length is printed as 1203 residues in some places and 1204 in others; also called hPtch-2; patched-2
T1 sequence: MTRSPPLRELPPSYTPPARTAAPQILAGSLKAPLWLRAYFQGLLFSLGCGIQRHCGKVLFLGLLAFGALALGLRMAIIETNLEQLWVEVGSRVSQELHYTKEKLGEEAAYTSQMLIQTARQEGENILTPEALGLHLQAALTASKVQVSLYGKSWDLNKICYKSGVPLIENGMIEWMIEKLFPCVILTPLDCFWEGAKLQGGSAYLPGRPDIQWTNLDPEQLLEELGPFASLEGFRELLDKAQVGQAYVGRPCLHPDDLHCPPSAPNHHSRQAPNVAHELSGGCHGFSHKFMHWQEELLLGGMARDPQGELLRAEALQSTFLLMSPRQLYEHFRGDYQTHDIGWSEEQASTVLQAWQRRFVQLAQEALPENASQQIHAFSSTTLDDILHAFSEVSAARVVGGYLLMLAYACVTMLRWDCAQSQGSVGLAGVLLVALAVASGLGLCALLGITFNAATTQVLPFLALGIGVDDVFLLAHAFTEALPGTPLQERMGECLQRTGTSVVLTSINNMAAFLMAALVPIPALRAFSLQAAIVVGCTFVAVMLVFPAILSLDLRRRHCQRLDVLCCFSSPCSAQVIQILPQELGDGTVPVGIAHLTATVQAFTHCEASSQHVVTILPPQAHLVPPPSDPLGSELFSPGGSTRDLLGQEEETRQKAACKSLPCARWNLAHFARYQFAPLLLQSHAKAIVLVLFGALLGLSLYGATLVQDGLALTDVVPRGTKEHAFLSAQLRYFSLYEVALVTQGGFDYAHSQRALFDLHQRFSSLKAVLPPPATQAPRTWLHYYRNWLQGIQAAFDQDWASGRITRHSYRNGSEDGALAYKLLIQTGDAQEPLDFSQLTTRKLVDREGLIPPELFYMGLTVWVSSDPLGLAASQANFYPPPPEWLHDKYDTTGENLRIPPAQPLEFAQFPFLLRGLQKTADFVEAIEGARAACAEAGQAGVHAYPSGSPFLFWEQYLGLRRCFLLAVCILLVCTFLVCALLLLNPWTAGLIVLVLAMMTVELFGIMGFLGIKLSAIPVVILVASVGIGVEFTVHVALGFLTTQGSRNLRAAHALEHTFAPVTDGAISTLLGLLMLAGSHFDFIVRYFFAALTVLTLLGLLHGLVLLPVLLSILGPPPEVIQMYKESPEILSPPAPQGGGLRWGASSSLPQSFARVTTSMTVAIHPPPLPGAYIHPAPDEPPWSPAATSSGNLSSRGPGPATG
Assay: Scatchard analysis of displacement of 125I-Shh from 293 cells expressing Ptch-2
Description: As shown on FIG. 7A, binding of ¹²⁵I-Shh can be competed with an excess of Shh, Dhh or Ihh (SEQ ID NOS: 14, 13, and 29, respectively).
To determine whether Ptch-2 is able to bind to the various hedgehog ligands, 293 cells were transfected with Ptch (SEQ ID NO:4) or Ptch-2 (SEQ ID NO:2) using standard procedures. Cells were incubated with 100 pM ¹²⁵I-Shh (19 kD amino terminal fragment of murine Shh (SEQ ID NO:14)) in the presence or absence of excess unlabeled Shh (SEQ ID NO:14) or Dhh (SEQ ID NO:13) for 2 h at room temperature. After equilibrium was reached, the ligand bound cells were centrifuged through a continuous sucrose gradient to separate unincorporated and then counted in a scintillation counter. […] Varying concentrations of cold competitor indicate that the 2 ligands have similar affinity for Ptch (SEQ ID NO:4) and Ptch-2 (SEQ ID NO:2).

Kd: 0.4 nM
B1: Ihh (SEQ ID NO:29) (ligand)
chain: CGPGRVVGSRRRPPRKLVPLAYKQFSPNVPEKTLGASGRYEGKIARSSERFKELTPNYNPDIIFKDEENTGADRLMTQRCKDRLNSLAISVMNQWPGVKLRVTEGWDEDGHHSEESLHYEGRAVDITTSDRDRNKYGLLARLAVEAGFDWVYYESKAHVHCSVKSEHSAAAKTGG
notes: also called Indian Hh

Kd: 0.6 nM
B2: Dhh (SEQ ID NO:13) (ligand)
chain: not shown
notes: also called Desert Hh; Desert hedgehog
